# Substitutions are numbered along the chain they refer to. Names and notes keep the numbering of the source.
# B1: L3A: neuregulin fragment (177-237) with alanine substitution for the 3rd amino acid (protein)
# chain: SHAVKCAEKEKTFCVNGGECFMVKDLSNPSRYLCKCPNEFTGDRCQNYVMASFYKAEELYQ
# B2: D43A: neuregulin fragment (177-237) with alanine substitution for the 43rd amino acid (protein)
# chain: B1 chain with A3L, D43A
# B3: 8A47A: neuregulin double mutant, simultaneous alanine substitutions for the 8th and 47th amino acids of the neuregulin fragment (protein)
# chain: B1 chain with A3L, E8A, N47A
# B4: NRG: the 177-237 amino acids fragment of neuregulin1β2 (SEQ ID NO:1) (protein, listed as Homo sapiens)
# chain: B1 chain with A3L
# Key:
# [1] = biological target: T1, ErbB2&ErbB3 co-expressing COS 7 cells (Homo sapiens, UniProt P21860); test: Signal transduction: AKT phosphorylation by western blot; format: cell-based; conditions: 10 minutes
# T1 construct: expressed in transfected cells; host or cells: COS 7
# Method: (§1) Similarly, to study the signal transduction ability of neuregulin and its mutations, ErbB2&ErbB3 or ErbB2&ErbB4 co-expressing COS 7 cells are used. The cells are grown to 80% confluence. In the afternoon, after the cells reach 80% confluence, the media is changed to serum free media. Then after 24 hours, different amounts of neuregulin or neuregulin variants are added into separate wells containing the cells. After 10 minutes, loading buffer is added to lyse the cells. The sample is then harvested and loaded into a separate well of gel for electrophoresis and western blot analysis.
# [2] = biological target: T2, ErbB2&ErbB4 co-expressing COS 7 cells (Homo sapiens, UniProt Q15303); test: as above; format: cell-based; conditions: 10 minutes
# T2 construct: expressed in transfected cells; host or cells: COS 7
# Method: as §1
# [3] = biological target: T1, ErbB2&ErbB3 co-expressing COS 7 cells; test: Receptor binding affinity assay (competition of bound radiolabeled ligand) on COS7 cells; conditions: for receptor binding affinity compared with neuregulin: ErbB2&ErbB3 co-expressing cells; for EC50: Table 7 (footnote defines KD), read-out: EC50, COS7 cells (ErbB2&ErbB3 co-expression)
# Method: (§2) To study the receptor binding affinity of neuregulin and its mutations, ErbB2&ErbB3 or ErB2&ErB4 co-expressing COS 7 are used. The cells are grown to 80% confluence. In the afternoon, after the cells reach 80% confluence, the media is changed to serum free media.
# [4] = biological target: T2, ErbB2&ErbB4 co-expressing COS 7 cells; test: as above; conditions: for receptor binding affinity compared with neuregulin: ErbB2&ErbB4 co-expressing cells; for EC50: Table 7 (footnote defines KD), read-out: EC50, COS7 cells (ErbB2&ErbB4 co-expression)
# Method: as §2
Molecule,AKT phosphorylation compared with neuregulin [1],AKT phosphorylation compared with neuregulin [2],receptor binding affinity compared with neuregulin [3],EC50 [3] [nM],receptor binding affinity compared with neuregulin [4],EC50 [4] [nM]
B1,less AKT phosphorylation than neuregulin,more AKT phosphorylation than neuregulin,nearly the same receptor binding affinity,1150,much lower,1060
B2,less AKT phosphorylation than neuregulin,more AKT phosphorylation than neuregulin,nearly the same receptor binding affinity,–,much higher,–
B3,nearly same AKT phosphorylation as neuregulin,much more AKT phosphorylation than neuregulin,–,–,–,–
B4,–,–,–,1410,–,282

# Source: patent US10112983B2, “Neuregulin variants and methods of screening and using thereof” (Zensun (Shanghai) Science & Technology, Co., Ltd., priority 2005, dated 2018)
